# Laboratory results: patent US20230272056A1 (Merck Sharp & Dohme, published 2023)
# Where a chain is given by its changes, count along the chain named. Names and notes keep the numbering of the source.
# B1: 06BLM (antibody, human IgG1, L234A L235A, V domains shown)
# VH: EVQLVQSGAEVKKPGASVKVSCKASGYTFTSYDMHWVRQAPGQGLEWMGRIDPQSGGIRYAQKFQGRATLTVDTSTSTAYMELSRLRSDDTAVYYCARWDYGGQFDVWGQGTLVTVSS
# VL: DIQMTQSPSSLSASVGDRVTITCRASQDIYNYLNWYQQKPGKAVKLLIYYTSILETGVPSRFSGSGSGTDYTLTISSLQPEDFATYFCQQGDTLPWTFGQGTKLEIK
# notes: IgG1 L234A L235A D265S/kappa; also called 69BLH; 42BMD
# B2: VL R53E (31BIT) (Fab, V domains shown)
# VH: B1 VH with D33W, R59K, Q104Y
# VL: DIQMTQSPSSLSASVGDRVTITCRASQDITNYLNWYQQKPGKAVKLLIYYTSELHSGVPSRFSGSGSGTDYTLTISSLQPEDFATYFCQQGDTLPWTFGQGTKLEIKR
# notes: Heavy chain: parental 20E6 Fab HC, implied
# B3: VH S55E (26BIT) (Fab, V domains shown)
# VH: B1 VH with D33W, S55E, R59K, Q104Y
# VL: B2 VL with E53R
# notes: Light chain: parental 20E6 LC, implied
# B4: VL T30D (37BIT) (Fab, V domains shown)
# VH: B1 VH with D33W, R59K, Q104Y
# VL: B2 VL with T30D, E53R
# notes: as for B2
# B5: VH S31R (25BIT) (Fab, V domains shown)
# VH: B1 VH with S31R, D33W, R59K, Q104Y
# VL: B2 VL with E53R
# notes: as for B3
# B6: VL L94D (32BIT) (Fab, V domains shown)
# VH: B1 VH with D33W, R59K, Q104Y
# VL: B2 VL with E53R, L94D
# notes: as for B2
# B7: VL R53I (34BIT) (Fab, V domains shown)
# VH: B1 VH with D33W, R59K, Q104Y
# VL: B2 VL with E53I
# notes: Heavy chain: parental 20E6 Fab HC, implied; also called VL R531 (34BIT)
# B8: VH S31K (24BIT) (Fab, V domains shown)
# VH: B1 VH with S31K, D33W, R59K, Q104Y
# VL: B2 VL with E53R
# notes: as for B3
# B9: VL L94Q (33BIT) (Fab, V domains shown)
# VH: B1 VH with D33W, R59K, Q104Y
# VL: B2 VL with E53R, L94Q
# notes: as for B2
# B10: VL T30E (36BIT) (Fab, V domains shown)
# VH: B1 VH with D33W, R59K, Q104Y
# VL: B2 VL with T30E, E53R
# notes: as for B2
# B11: VL R53D (35BIT) (Fab, V domains shown)
# VH: B1 VH with D33W, R59K, Q104Y
# VL: B2 VL with E53D
# notes: as for B2
# B12: 57BJN (Fab, V domains shown)
# VH: B1 VH with R59K, Q104Y
# VL: B2 VL with E53R
# notes: also called VH W33D / VL (57BJN)
# B13: 58BJN (Fab, V domains shown)
# VH: B1 VH with R59K, W99Y, Y101H, Q104Y
# VL: B2 VL with T30Y, E53R
# notes: also called VH W33D W99Y Y101H / VL T30Y (58BJN)
# B14: 56BJN (Fab, V domains shown)
# VH: B1 VH with M34I, Q54Y, R59K, Q104Y
# VL: B2 VL with E53R
# notes: also called VH W33D M34I Q54Y / VL (56BJN)
# B15: 55BJN (Fab, V domains shown)
# VH: B1 VH with M34I, R59K, Q104Y
# VL: B2 VL with E53R
# notes: also called VH W33D M34I / VL (55BJN)
# B16: parental 20E6 humanized antibody (antibody, IgG1, V domains shown)
# VH: B1 VH with D33W, R59K, Q104Y
# VL: B1 VL with Y30T, I53R, E55H, T56S
# B17: 20BLM (antibody, human IgG1, kappa, L234A L235A, V domains shown)
# VH: B1 VH with I58E, R59K, W99Y, Q104Y
# VL: B2 VL with T30Y, E53R, H55E, S56T
# B18: 17BLM (antibody, human IgG1, kappa, L234A L235A, V domains shown)
# VH: B1 VH with R59K, Q104Y
# VL: B2 VL with T30Y, E53R, H55E, S56T, T93E
# B19: 09BLM (antibody, human IgG1, kappa, L234A L235A, V domains shown)
# VH: B1 VH with Q54I, R59K, Q104Y
# VL: B2 VL with T30F, E53H, H55E, S56T
# B20: 08BLM (antibody, human IgG1, kappa, L234A L235A, V domains shown)
# VH: B1 VH with I58T, R59K
# VL: B2 VL with T30Y, E53G, H55E, S56T
# B21: 10BLM (antibody, human IgG1, kappa, L234A L235A, V domains shown)
# VH: B1 VH with I58T, R59K, Q104Y
# VL: B2 VL with T30Y, E53V, H55E, S56T
# B22: 13BLM (antibody, human IgG1, kappa, L234A L235A, V domains shown)
# VH: B1 VH with S55T, G57D, R59K
# VL: B2 VL with T30Y, E53G, H55E, S56T
# B23: 14BLM (antibody, human IgG1, kappa, L234A L235A, V domains shown)
# VH: B1 VH with M34T, R59K, Q104Y
# VL: B2 VL with T30Y, E53Y, H55E, S56T
# Molecular target: T1, human LAP-TGFB1 Fc fusion (human)
# T1 construct: also called human LAP-TGFβ1-Fc; human LAP-TGFβ-Fc isoform 1
# T1 sequence (chain, as listed by the source limits assumed): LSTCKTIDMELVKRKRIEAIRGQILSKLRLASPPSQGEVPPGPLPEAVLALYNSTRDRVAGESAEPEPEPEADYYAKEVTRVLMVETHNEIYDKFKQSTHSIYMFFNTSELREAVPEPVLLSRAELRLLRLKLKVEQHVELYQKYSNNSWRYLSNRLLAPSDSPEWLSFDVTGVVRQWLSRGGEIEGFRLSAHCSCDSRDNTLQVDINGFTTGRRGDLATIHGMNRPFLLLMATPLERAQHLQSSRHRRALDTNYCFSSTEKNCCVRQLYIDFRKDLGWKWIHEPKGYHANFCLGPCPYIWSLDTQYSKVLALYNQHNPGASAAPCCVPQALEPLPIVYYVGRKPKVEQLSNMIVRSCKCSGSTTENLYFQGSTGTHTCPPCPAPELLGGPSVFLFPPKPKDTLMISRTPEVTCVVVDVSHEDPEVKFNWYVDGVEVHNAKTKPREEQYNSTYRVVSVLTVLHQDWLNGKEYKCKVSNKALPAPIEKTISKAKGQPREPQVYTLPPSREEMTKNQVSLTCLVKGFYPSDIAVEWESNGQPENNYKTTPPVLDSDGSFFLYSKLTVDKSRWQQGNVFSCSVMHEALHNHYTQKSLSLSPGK
# Assay: SPR pH 6.0, antigen captured on Fab 54BLH
# Excerpt: A Series S C1 sensor chip (Cytiva, catalog BR100535) was immobilized with low densities of high affinity Fab 54BLH on a Biacore T200 instrument with 1×HBS-EP+(Teknova, catalog H8022). This surface served as a monovalent capture surface for a low-density layer of heterodimer human LAP-TGFβ1 complex leaving the second binding site exposed for monovalent kinetic binding analysis with both mAbs and Fabs. Immobilized flow cell 1 served as the reference and flow cells 2, 3 and 4 were used to evaluate the binding interaction between human LAP-TGFβ1 and yeast display mutant mAbs and Fabs.
# Approximately 15-25 RU of human LAP-TGFβ1-Fc was captured to the Fab capture surface followed by injection of 1:3 serially diluted Fabs and mAbs from 6 nM to 0.07 nM (Fabs: 54BLH, 55BLH, 60BLH, 63BLH, 64BLH-mAbs: 69BLH, 70BLH) and 1:3 serially diluted Fab and mAbs from 60 nM to 0.74 nM (Fabs: 59BLH, 66BLH, 67BLH—mAbs: 74BLH, 75BLH, 78BLH, 79BLH, 81BLH, 82BLH) including 0 nM. The binding data was double referenced by subtraction of signal from a reference flow cell and the 0 nM injections for evaluation of Fabs and mAbs respectively. Binding rate constants were calculated/determined by fitting the data with a 1:1 binding model (Cytiva Biacore T200 Evaluation software 3.0).
Fab/mAb KD Ratio,Kd [nM],koff [s⁻¹],kon [M⁻¹ s⁻¹],Binder
1.9,0.0114,6.18e-05,5.43e+06,B1

# Molecular target: T1, human LAP-TGFB1 Fc fusion
# Assay: BLI off-rate screen
# Protocol: The Fab mutants including a positive control, 20E6 Fab, and a negative control Fab (Molecular Innovations, catalog HU-FAB-4510) were diluted to 200 nM in assay buffer and loaded to FAB2G sensors for 180 seconds followed by a one-hour incubation at room temperature in assay buffer to equilibrate the tips. The Fab loaded sensors were assessed for binding with 100 nM human LAP-TGFβ for 180 seconds followed by a 180 second dissociation phase in assay buffer on a ForteBio HTX (software version 9.0.0.66). Non-specific binding to the negative control Fab was subtracted and the binding sensorgrams were aligned to the start of the association phase on the X and Y axis. The Fab binding was fit with the 1:1 binding model, dissociation phase only, with local fitting using ForteBio Data Analysis 9.0 software.
Binding response [nm],Fold change [fold],koff [s⁻¹],Binder
0.664,1.5,0.0286,B2
0.489,0.8,0.0519,B3
0.182,1.1,0.0402,B4
0.069,1,0.0437,B5
0.195,0.7,0.0618,B6
0.757,1.7,0.0246,B7
0.625,1.1,0.037,B8
0.341,0.7,0.0583,B9
0.439,1,0.0405,B10
0.398,1.2,0.0341,B11

# Molecular target: T2, human LAP-TGFB2 Fc fusion (human)
# T2 construct: also called human LAP-TGFβ2; LAP-TGFβ isoform 2
# T2 sequence (chain, as listed by the source limits assumed): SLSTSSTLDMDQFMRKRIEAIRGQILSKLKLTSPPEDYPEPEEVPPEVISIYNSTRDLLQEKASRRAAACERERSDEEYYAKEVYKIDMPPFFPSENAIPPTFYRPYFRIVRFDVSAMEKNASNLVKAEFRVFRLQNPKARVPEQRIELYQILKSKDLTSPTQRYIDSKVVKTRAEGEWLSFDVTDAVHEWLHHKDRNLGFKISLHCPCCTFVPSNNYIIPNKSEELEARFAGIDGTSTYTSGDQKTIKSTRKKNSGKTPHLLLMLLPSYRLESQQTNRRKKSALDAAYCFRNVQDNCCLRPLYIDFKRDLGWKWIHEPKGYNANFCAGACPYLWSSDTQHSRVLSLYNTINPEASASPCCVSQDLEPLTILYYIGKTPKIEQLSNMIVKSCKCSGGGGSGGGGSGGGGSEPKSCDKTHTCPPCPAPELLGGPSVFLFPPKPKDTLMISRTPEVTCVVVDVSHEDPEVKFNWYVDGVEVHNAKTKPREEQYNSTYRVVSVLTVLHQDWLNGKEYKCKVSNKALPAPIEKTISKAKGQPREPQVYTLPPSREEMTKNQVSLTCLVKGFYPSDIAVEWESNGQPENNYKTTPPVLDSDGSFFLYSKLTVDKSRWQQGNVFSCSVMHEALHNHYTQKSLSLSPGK
# Assay: SPR
# Excerpt: (§1) This Example describes the isoform specificity of the yeast display mutants to bind to human LAP-TGFβ isoforms 1, 2, and 3 using surface plasmon resonance. A Series S CM4 sensor chip (GE Healthcare, catalog BR100534) was immobilized with an anti-human Fc capture antibody following the kit protocol (GE Healthcare, catalog BR100839) on a Biacore T200 instrument with 1× HBS-EP+ (Teknova, catalog H8022). […] Binding specificity experiments between human LAP-TGFβ isoforms 2 and 3 and yeast display mutants were performed in 1× HBS-EP+ with 0.1 mg/mL BSA at 25° C. Approximately 20-40 RU amounts of human LAP-TGFβ2 and 3 were captured to the anti-human Fc surface followed by injection of 1000 nM Fab including a negative control 0 nM Fab. The binding data were double referenced by subtraction of signal from a reference (capture surface only) flow cell and the negative control 0 nM Fab injection. Binding rate constants were determined by fitting the data with a 1:1 binding model (GE Healthcare Biacore T200 Evaluation software 3.0).
row,binding result,Binder
1,no binding (tested: 1000 nM Fab),B12
2,no binding (tested: 1000 nM Fab),B13
3,no binding (tested: 1000 nM Fab),B14
4,no binding (tested: 1000 nM Fab),B15

# Molecular target: T3, human LAP-TGFB3 Fc fusion (human)
# T3 construct: also called human LAP-TGFβ3; LAP-TGFβ isoform 3
# T3 sequence (chain, as listed by the source limits assumed): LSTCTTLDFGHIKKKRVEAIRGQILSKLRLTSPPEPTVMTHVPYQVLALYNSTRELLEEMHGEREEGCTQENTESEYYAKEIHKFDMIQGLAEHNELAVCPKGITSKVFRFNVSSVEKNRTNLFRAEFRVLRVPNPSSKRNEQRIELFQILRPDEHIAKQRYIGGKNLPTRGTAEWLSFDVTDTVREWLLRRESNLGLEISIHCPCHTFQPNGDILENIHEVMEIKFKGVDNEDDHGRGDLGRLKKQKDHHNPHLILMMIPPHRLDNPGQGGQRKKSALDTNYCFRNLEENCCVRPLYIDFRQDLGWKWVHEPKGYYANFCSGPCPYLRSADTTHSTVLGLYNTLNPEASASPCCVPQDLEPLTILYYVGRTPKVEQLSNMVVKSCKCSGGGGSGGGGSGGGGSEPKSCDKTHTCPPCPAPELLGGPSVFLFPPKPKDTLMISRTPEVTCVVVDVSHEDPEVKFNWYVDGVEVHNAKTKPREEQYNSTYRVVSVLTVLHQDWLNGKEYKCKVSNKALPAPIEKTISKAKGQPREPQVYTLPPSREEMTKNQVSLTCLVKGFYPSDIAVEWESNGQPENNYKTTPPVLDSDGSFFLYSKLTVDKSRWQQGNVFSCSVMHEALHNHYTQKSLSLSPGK
# Assay: SPR
# Excerpt: as §1
row,binding result,Binder
1,no binding (tested: 1000 nM Fab),B12
2,no binding (tested: 1000 nM Fab),B13
3,no binding (tested: 1000 nM Fab),B14
4,no binding (tested: 1000 nM Fab),B15

# Molecular target: T1, human LAP-TGFB1 Fc fusion
# Assay: SPR, antigen-Fc captured, Fab analyte
# Excerpt: as §1
Fold improvement in KD [fold],Kd [nM],koff [s⁻¹],kon [M⁻¹ s⁻¹],Binder
6,13.4,0.0178,1.33e+06,B12
13,6.42,0.0151,2.35e+06,B13
1,–,–,–,B14
3,–,–,–,B15

# Molecular target: human LAP-TGFβ1 expressed on P3U1 cells (human, UniProt P01137 30-390)
# Sequence (P01137 30-390): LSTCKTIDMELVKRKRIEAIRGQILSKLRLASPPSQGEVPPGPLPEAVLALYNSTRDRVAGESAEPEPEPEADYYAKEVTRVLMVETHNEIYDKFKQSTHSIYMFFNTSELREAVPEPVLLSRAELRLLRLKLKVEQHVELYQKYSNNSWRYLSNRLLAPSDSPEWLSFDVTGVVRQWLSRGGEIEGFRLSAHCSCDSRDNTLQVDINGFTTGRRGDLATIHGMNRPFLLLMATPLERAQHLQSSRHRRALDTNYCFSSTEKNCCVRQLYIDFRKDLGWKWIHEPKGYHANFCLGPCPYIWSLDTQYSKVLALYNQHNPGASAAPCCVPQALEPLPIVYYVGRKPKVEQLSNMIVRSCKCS
# Assay: cell-based or functional assay
Average EC50 [µg/mL],ELISA assay 2 EC50 [µg/mL],ELISA assay #1 EC50 [µg/mL],Binder
5.64,8.9,2.38,B16
0.033,0.008,0.0574,B17
0.063,0.089,0.0357,B18
0.08,0.13,0.0295,B19
0.076,0.098,0.0539,B20
0.083,0.134,0.0332,B21
0.125,0.137,0.113,B1
0.092,0.105,0.0785,B22
0.158,0.146,0.169,B23
